Test results: the nanobody polyreactivity screen of Harvey et al. (2022)

Assay: yeast display, Sf9 membrane polyspecificity reagent, FACS + sequencing; frameworks hold sequencing errors
Summary of the method: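 Galactose-induced (36–48 hours) yeast carrying a synthetic nanobody display library were exposed to 10% biotinylated, detergent-solubilized Sf9 membrane reagent at 4 °C for 1 hour. FACS followed streptavidin microbead enrichment, using low and high (top ~1%) gates for expression (anti-HA) and reagent binding (streptavidin). Colony PCR, MiSeq 2 × 250 sequencing and CDR-length filtering followed. Labels for polyreactivity reflect the gate of origin.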

Sequence	polyreactivity (PSR sort gate)
QVQLVESGGSLVQAGGSLRLSCAASGRIFYYNAMGWYRQAPGKERELVAAISWSGGSTYYADSVKGRFTISRDNAKNTVYLQMNSLKPEDTAVYYCAVDVYGYTPRPTREPLIYEYWGQGTQVTVSS	low polyreactivity
QVQLVESGGSLVQARGSLRLSCAASGFIFPYYVMGGYRHAPGQERELVAAITCGGITYYAESVKGRFTISRDNAKNTVYFLMTSLKPEDTVVYYCAAENKYFYAWGSFVDDEYWGQGTQVTVSS	high polyreactivity
QVQLVESGGVLDQAGGSLRLICAASGITLFHYVMGWYRQAPGKEMELVAVISSSGGSTYYADSVKGRFTISRDNAKNTVYLQMNSLKPEDTAVYYCAAETDSRKARVLYDYWGQGTQVTVSS	high polyreactivity
QVQLVESGGVLDQAGGSLRLSFAASGFTFGAYAMGWYRHAPGKETELVASISWSGGSTYYADSVKGRFTISRDNAKNPVYLQMNSVKPEDTAVYYCNKDFVYPEDDGLFDFWGQGTQVTVSS	low polyreactivity
QVQLVESGGVLDQAGRSLRLSCAASGRTFNRYAMGWYRQAPGKERDLVAAISSSGGSTYYADSVKGRFTISRDNAKNTVYLQMNSLKPEDTAVYYCNKGQYSHLNSYGDDYWGQGTQVTVSS	high polyreactivity
QVQLVESGGVLLQAGGSLRLTCAASGSIFQYNALVGYRQAPGKVREFVAAITRGDSTYYADSVKGRFTISRDNAKNTVYLQMNSLKADDTAVYYCAKRGWFYGGRDYWGQGTQVTVSS	high polyreactivity
QVQLVESGGVLVQAAGSLRLSCAASGRIFGYNAMGWYRQAPGSERDFVAAISPSGGSTYYADSLKGLFTISRDNAKITVYLQMNSLKPEDTGVYYCAARIGYRSWAWDAYEYWGQGTQVTVSS	low polyreactivity
QVQLVESGGVLVQAGGSLRISCAASGIIFSYYAMGWYRQAPGKERELVAAIYRRGTSTYYADSVKGRFTISRDNAKNTVYLQMNSLKPEDTAVYYCNKSPYYTVWSTRCNQFSRFYYWGQGTQVTVSS	high polyreactivity
QVQLVESGGVLVQAGGSLRISCAASGSIFGSYAMGWYRQAPGKEREFVAAIRRSSASTYYADSVKGRFTISRDNAKNTVYLQMYSLKPEDTAVYYCATQCYCYYGYRYRYAAYDYRGQGTQVTVSS	high polyreactivity
QVQLVESGGVLVQAGGSLRLICAASGSTFEFYAMGWYRQEPGKERELVARITWNGGNTYADSVKGRYTISRDNAKNNVYLQMNSLKPEDTSVYYCATDYVVGFYYWGQGTQVTVSS	low polyreactivity
QVQLVESGGVLVQAGGSLRLSCAASGFIFPYYAMGWYRPAPGKETELVAAIDQSGDSTYYADSVKGRFTISRDNAKNTVYLQMNSLKPEDTAVFYCAARAVGGVRGYRYDYWGQGTQVTVSS	high polyreactivity
QVQLVESGGVLVQAGGSLRLSCAASGFTFLVYAMGWYRQAPGKERELLAAITSGSSTTYADSVKGRFTISRDNAKNTVYLQMNSLKPEDTAVYYCAARPRLDVLVKRFYYWGQGTQVTVSS	high polyreactivity
QVQLVESGGVLVQAGGSLRLSCAASGFTFVSNDMGWYRQAPGKERELVAAIRYRGGDTYYADSVKGRFTISRDNAKNTVYLQMNSLKPEDTAVYYCATGKRAYSSYLFDYWGQGTQVTVSS	low polyreactivity
QVQLVESGGVLVQAGGSLRLSCAASGGIFGNYAMGWYRQAPGKERELVAVIDSSDGSTHYADSVKGRFTISRDNAKITVYLQMNSLKPEDTALYYCATQGFWNYWTFDYWGQGTQVTVSS	low polyreactivity
QVQLVESGGVLVQAGGSLRLSCAASGITFNSYAMGWYRQAPGKERELVASISWIGGSTYYADSVKGRFTISRDNAKNTVYFQMNSLKPEDTAVYYCAVDKGTDYYYDVDYWGQGTQVTVSS	low polyreactivity
QVQLVESGGVLVQAGGSLRLSCAASGLIFPSYALGWYRQAPGKERELVAAITFSGSDTNYADSVKGRFTISRDNAKNTVSLQMKSLKPEDTAVYYCAAAYFDFWGWLHDYWGQGTQVTVSS	low polyreactivity

Sequence	polyreactivity (PSR sort gate)
QVQLVESGGVLVQAGGSLRLSCAASGLTFDPNAMGWYRQAPGKERELVATITQTDGSTYYADSVKGRFTISRDNAKNTVYLQMNSLKPEDTAVYYCDGLVSRGSDYWGQGTQVTVSS	low polyreactivity
QVQLVESGGVLVQAGGSLRLSCAASGLTFQPYVMGWYRHAPGKERELVAAISVRTTRTYYADSVKGRFTISRDNAKNTVYLQMNSLKPEDTAVYYCATRGDYWSPYEDDDYWGQGTQLTVSS	low polyreactivity
QVQLVESGGVLVQAGGSLRLSCAASGNTFKHYALGGYRQAPGKEREKVAAISRSGASTNYADSVKGRFTISRDNAKNTVYLQMNSLKPEDTAVYYCAAEYSARKAYLYDYWGQGTQVTVSS	high polyreactivity
QVQLVESGGVLVQAGGSLRLSCAASGNTFWLNAMGWYRQSPGKERELVDAITYTDGSTYADSVKGRFTISRDNAKNTVYLQMNSLKPEDTAVYYCAVANPSPYEWIAYYYWGQGTQVTVSS	low polyreactivity
QVQLVESGGVLVQAGGSLRLSCAASGRIFGRYAMGWYRPAPGKERELVAAISWSGDSTYYADSVKGRFTISRDNSTNTVYLHMNSLKPEDTAVYYCATGGRGGRRYEYWGQGTQVTVSS	low polyreactivity
QVQLVESGGVLVQAGGSLRLSCAASGRIFIGYAMGGNRQAPGKERELVAAISSSGGRTYYADSVKGRFTISRDNAKYTVYLQMNSLKPEDSAVYYCAKSFTRNTDYEYWGQGTQVTVSS	high polyreactivity
QVQLVESGGVLVQAGGSLRLSCAASGRIFPYYAMGWYRQAPGKEREMVAAINSGGSTYYADSVKGRFTISRDNAKNTVYLQMNSLKPEDTAVYYCNADVLFEDGFFWDDYWGQGTQVTVSS	low polyreactivity
QVQLVESGGVLVQAGGSLRLSCAASGRIFTGNAMGWYRQAPGKETELVAAISRRGTRTYYADSVKGRFTISRDNAKNTVYLQMNSLKPEDTAVYYCATVLYKAYNDYGYWGQGTQVTVSS	high polyreactivity
QVQLVESGGVLVQAGGSLRLSCAASGRTFAYNTMGWYRQAPGKEREVVAAITWSGGGTYYADSVKGRFTISRDNAKKTVYLQLNSLKPEDTAVYYCAVEYATPRARFRYYYWGQGTKVTVSS	high polyreactivity
QVQLVESGGVLVQAGGSLRLSCAASGRTFSVYTMGWYRQAPGKERELVASINWSGGRTYYADSVKGRFTISRDKAKNTVYLQMNSLKPEDTAVYYCAATGWRTLYDYWGQGTQVTVSS	high polyreactivity
QVQLVESGGVLVQAGGSLRLSCAASGRTSFYYGVGWSRQAPGKERELVAGINYGGGSTYYADSVKGRFSISRDTAKNTVYLQMNSLKPEDTAVYYCAAYRRTLGDYWGQGTQVTVSS	low polyreactivity
QVQLVESGGVLVQAGGSLRLSCAASGSIFAGNAMGWYRQEPGKERELVAAISRSGTRTYYADSVKGRFTISRDNAMNTVYLQMNSLKPEDTAVYYFAAYLPYRQGRYGYEYWGQGTQVTVSS	high polyreactivity
QVQLVESGGVLVQAGGSLRLSCAASGSIFGIYTMGWYIHATGKERELVAAISWSGGSTYYADSVKGRFTISRDNAKNTVFLQMNSLKPEDTAVYYCAAVPWASDGYDSWGQGTQVTVSS	low polyreactivity
QVQLVESGGVLVQAGGSLRLSCAASGSIFNINAMGWYRQAPGKERELVAAMTSGDGTDYADSVKGRFTISRDNAKNTVYLQMNSLKPEDTAVYYCAAEYYWLVPERFDYWGQGTQVTVSS	low polyreactivity
QVQLVESGGVLVQAGGSLRLSCAASGSIYTWYAMGWYRQAPGKERELVAAITRGGSTYADSVKGRFTISRENAKNTVYLQMNSLKPEDTAVYYCNAVYGVYDFNYWGQGTQVTVSS	low polyreactivity
QVQLVESGGVLVQAGGSLRLSCAASGSTFYFNTMGWYRQAPGKERELVAAITATGASTYYADSVKGRFTISRDIAKNTVYLQMNSLKPEDTAVYYCNVRLRIRSGYWGQGTQVTVSS	high polyreactivity
